Literature values, collected in paper PMC10910070.

Tested on: gliadin (wheat, commercial mixture) (wheat)
Assay: not stated (cited value)
Conditions: 5 mM Tris pH 7.4, 25 C; 300 uL AuNPs + 200 uL 40 nM aptamer + 200 uL gliadin, then 200 uL NaCl (40 mM in Methods, 37 mM in Fig. 2 legend), 900 uL final

| Sequence | Kd |
| --- | --- |
| CCAGTCTCCCGTTTACCGCGCCTACACATGTCTGAATGCC [Apt-1] | 186 nM |
| CTACACATGTCTGAATGCC [Apt-2] | 148 nM |
